We go through one molecule from paper PMC10328973.

The target of this assay is UKNP5.2.1 E2E1-I53-50A trimer (hepatitis C virus genotype 5, strain UKNP5.2.1).

B1: chimeric HEPC74 HC – VRC01 LC (antibody, V domains shown)
VH: QVQLVQSGAEVKKPGSSVKVSCTTSGGTYINYAISWVRQAPGQGLEWVGGMSPISNTPKYAQKFQGRVTITADESTSTTYMELSSLRPEDTAVYYCARDLLKYCGGGNCHSLLVDPWGQGTLVTVSS
VL: EIVLTQSPGTLSLSPGETAIISCRTSQYGSLAWYQQRPGQAPRLVIYSGSTRAAGIPDRFSGSRWGPDYNLTISNLESGDFGVYYCQQYEFFGQGTKVQVD
Take B1: the neutralisation of UKNP5.2.1 HCVpp, IC50 (the only HCVpp neutralised) came out at 4.4 µg/mL.
